# Reference: patent publication US20210380703A1 (RIGEL PHARMACEUTICALS, published 2021)
# How the values were obtained:
# Human ACVR2A = target: T1, Human ACVR2A (human, UniProt P27037 20-135, limits assumed); assay: ELISA
# T1 construct: also called activin receptor, type II A
# Procedure, shortened: (§1)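 ELISA measured binding of ACVR2A-specific monoclonal antibodies to human and mouse ACVR2A. Biotinylated goat anti-human kappa light chain served as positive control and human Fc as negative control.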
# Mouse ACVR2A = Mouse ACVR2A (mouse, UniProt P27038 20-135, limits assumed); assay: ELISA
# Chain of Mouse ACVR2A (P27038 20-135 limits assumed): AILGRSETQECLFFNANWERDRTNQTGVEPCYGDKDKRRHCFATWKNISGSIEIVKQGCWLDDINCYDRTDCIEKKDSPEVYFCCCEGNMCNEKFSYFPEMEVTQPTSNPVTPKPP
# Procedure, shortened: as §1
# Goat anti-Human Kappa = target: T2, Goat anti-Human Kappa; assay: ELISA; positive control
# T2 construct: Positive control; also called biotinylated goat anti-human kappa light chain
# Procedure, shortened: as §1
# Also: test concentration or dose not given here.
# T1 sequence (P27037 20-135 limits assumed): as the sequence (P27038 20-135 limits assumed) above, with R20K, I73V counted along it
Binder,optical density (Human ACVR2A) [OD],optical density (Mouse ACVR2A) [OD],optical density (Goat anti-Human Kappa) [OD]
"374_H05 (antibody, V domains shown, VH/VL only) VH: EVQLLESGGGLVQPGGSLRLSCAASGFTFSSYSMNWVRQAPGKGLEWVAGINYNGGYTSYADSVKGRFTISRDNSKNTLYLQMNSLRAEDTAVYYCARGATWHDTHLDYWGQGTLVTVSS VL: DIQMTQSPSSLSASVGDRVTITCRASQSILSYVNWYQQKPGKAPKLVIYAATSRASGVPSRFSGSGSGTDFTLTISSLQPEDFATYYCQQSYDNPLTFGGGTKVEIK",3.31,3.3,3.04
"365_B01 (antibody, V domains shown, VH/VL only) VH: EVQLLESGGGLVQPGGSLRLSCAASGFTFDSYGMHWVRQAPGKGLEWVASINYNSGYTSYADSVKGRFTISRDNSKNTLYLQMNSLRAEDTAVYYCARSANWHDTALDYWGQGTLVTVSS VL: DIQMTQSPSSLSASVGDRVTITCRASQSISSYVNWYQQKPGKAPKLVIYAATSRASGVPSRFSGSGSGTDFTLTISSLQPEDFATYYCQQSYESPLTFGGGTKVEIK",2.39,2.65,3.49
"365_C01 (antibody, V domains shown, VH/VL only) VH: EVQLLESGGGLVQPGGSLRLSCAASGFTFDSYGMNWVRQAPGKGLEWVSSINYNSGYKSYADSVKGRFTISRDNSKNTLYLQMNSLRAEDTAVYYCARSANWHDTHLDYWGQGTLVTVSS VL: DIQMTQSPSSLSASVGDRVTITCRASQSIVSYLNWYQQKPGKAPKLVIYAVTSRASGVPSRFSGSGSGTDFTLTISSLQPEDFATYYCQQSYESPLTFGGGTKVEIK",2.87,3.02,3.63
"365_B06 (antibody, V domains shown, VH/VL only) VH: EVQLLESGGGLVQPGGSLRLSCAASGFTFDSYGMHWVRQAPGKGLEWVSNINYNGGYKSYADSVKGRFTISRDNSKNTLYLQMNSLRAEDTAVYYCARSANWHDTALDYWGQGTLVTVSS VL: DIQMTQSPSSLSASVGDRVTITCRASQSILTYVNWYQQKPGKAPKLLIYATTSLASGVPSRFSGSGSGTDFTLTISSLQPEDFATYYCQQSYDLPLTFGGGTKVEIK",2.25,2.42,3.28
"376_G06 (antibody, V domains shown, VH/VL only) VH: EVQLLESGGGLVQPGGSLRLSCAASGFTFSSYGMNWVRQAPGKGLEWVAGINYNGGYTGYADSVKGRFTISRDNSKNTLYLQMNSLRAEDTAVYYCARGANWHDTHLDYWGQGTLVTVSS VL: DIQMTQSPSSLSASVGDRVTITCRASQSIVSYVNWYQQKPGKAPKLVIYAATSRASGVPSRFSGSGSGTDFTLTISSLQPEDFATYYCQQSYNSPLTFGGGTKVEIK",3.42,3.58,3.49
"376_A02 (antibody, V domains shown, VH/VL only) VH: EVQLLESGGGLVQPGGSLRLSCAASGFTFSSYSMNWVRQAPGKGLEWVAGINYNGGYKSYADSVKGRFTISRDNSKNTLYLQMNSLRAEDTAVYYCARGATWHDTHLDYWGQGTLVTVSS VL: DIQMTQSPSSLSASVGDRVTITCRASQSILSYLNWYQQKPGKAPKLLIYAATSRASGVPSRFSGSGSGTDFTLTISSLQPEDFATYYCQQSYDLPLTFGGGTKVEIK",3.72,3.63,3.19
"375_H08 (antibody, V domains shown, VH/VL only) VH: EVQLLESGGGLVQPGGSLRLSCAASGFTFSSYSMNWVRQAPGKGLEWVSGINYNGGYTSYADSVKGRFTISRDNSKNTLYLQMNSLRAEDTAVYYCARGATWHDTHLDYWGQGTLVTVSS VL: DIQMTQSPSSLSASVGDRVTITCRASQSILTYLNWYQQKPGKAPKLLIYAATSLASGVPSRFSGSGSGTDFTLTISSLQPEDFATYYCQQSYDSPLTFGGGTKVEIK",3.31,3.28,3.32
"376_H01 (antibody, V domains shown, VH/VL only) VH: EVQLLESGGGLVQPGGSLRLSCAASGFTFSDYSMNWVRQAPGKGLEWVAGINYNGGYKGYADSVKGRFTISRDNSKNTLYLQMNSLRAEDTAVYYCARGANWHDTALDYWGQGTLVTVSS VL: DIQMTQSPSSLSASVGDRVTITCRASQSILTYLNWYQQKPGKAPKLLIYAATSRASGVPSRFSGSGSGTDFTLTISSLQPEDFATYYCQQSYSTPLTFGGGTKVEIK",3.11,3.31,3.28
"376_F06 (antibody, V domains shown, VH/VL only) VH: EVQLLESGGGLVQPGGSLRLSCAASGFTFSSYGMNWVRQAPGKGLEWVSGINYNGGYTGYADSVKGRFTISRDNSKNTLYLQMNSLRAEDTAVYYCARGANWHDTHLDYWGQGTLVTVSS VL: DIQMTQSPSSLSASVGDRVTITCRASQSILTYVNWYQQKPGKAPKLVIYAATSRASGVPSRFSGSGSGTDFTLTISSLQPEDFATYYCQQSYETPLTFGGGTKVEIK",3.52,3.65,3.47
"375_A03 (antibody, V domains shown, VH/VL only) VH: EVQLLESGGGLVQPGGSLRLSCAASGFTFDSYSMNWVRQAPGKGLEWVAGINYNGGYTSYADSVKGRFTISRDNSKNTLYLQMNSLRAEDTAVYYCARGATWHDTHLDYWGQGTLVTVSS VL: DIQMTQSPSSLSASVGDRVTITCRASQSILTYLNWYQQKPGKAPKLLIYAATSRHSGVPSRFSGSGSGTDFTLTISSLQPEDFATYYCQQSYDNPLTFGGGTKVEIK",3.62,3.62,3.09
"375_C11 (antibody, V domains shown, VH/VL only) VH: EVQLLESGGGLVQPGGSLRLSCAASGFTFSSYSMNWVRQAPGKGLEWVSSINYNGGYTSYADSVKGRFTISRDNSKNTLYLQMNSLRAEDTAVYYCARGATWHDTHLDYWGQGTLVTVSS VL: DIQMTQSPSSLSASVGDRVTITCRASQSILSYVNWYQQKPGKAPKLLIYAATSRHSGVPSRFSGSGSGTDFTLTISSLQPEDFATYYCQQSYDTPLTFGGGTKVEIK",3.59,3.61,3.26
"376_A05 (antibody, V domains shown, VH/VL only) VH: EVQLLESGGGLVQPGGSLRLSCAASGFTFSSYSMNWVRQAPGKGLEWVAGINYNSGYKGYADSVKGRFTISRDNSKNTLYLQMNSLRAEDTAVYYCARGATWHDTHLDYWGQGTLVTVSS VL: DIQMTQSPSSLSASVGDRVTITCRASQSILTYLNWYQQKPGKAPKLLIYAATSRASGVPSRFSGSGSGTDFTLTISSLQPEDFATYYCQQSYNTPLTFGGGTKVEIK",3.65,3.64,3.18
"376_H11 (antibody, V domains shown, VH/VL only) VH: EVQLLESGGGLVQPGGSLRLSCAASGFTFDSYSMNWVRQAPGKGLEWVSNINYNGGYTGYADSVKGRFTISRDNSKNTLYLQMNSLRAEDTAVYYCARGANWHDTALDYWGQGTLVTVSS VL: DIQMTQSPSSLSASVGDRVTITCRASQSISRYLNWYQQKPGKAPKLLIYAVTSLASGVPSRFSGSGSGTDFTLTISSLQPEDFATYYCQQSYESPLTFGGGTKVEIK",3.29,3.31,3.43
"376_H04 (antibody, V domains shown, VH/VL only) VH: EVQLLESGGGLVQPGGSLRLSCAASGFTFSSYSMNWVRQAPGKGLEWVAGINYNGGYKGYADSVKGRFTISRDNSKNTLYLQMNSLRAEDTAVYYCARGANWHDTALDYWGQGTLVTVSS VL: DIQMTQSPSSLSASVGDRVTITCRASQSILTYVNWYQQKPGKAPKLVIYAATSRASGVPSRFSGSGSGTDFTLTISSLQPEDFATYYCQQSYDLPLTFGGGTKVEIK",3.31,3.34,3.51
"375_C01 (antibody, V domains shown, VH/VL only) VH: EVQLLESGGGLVQPGGSLRLSCAASGFTFSSYGMNWVRQAPGKGLEWVSSINYNGGYKGYADSVKGRFTISRDNSKNTLYLQMNSLRAEDTAVYYCARGATWHDTHLDYWGQGTLVTVSS VL: not shown",2.96,3.27,3.14
"376_G05 (antibody, V domains shown, VH/VL only) VH: EVQLLESGGGLVQPGGSLRLSCAASGFTFSSYSMNWVRQAPGKGLEWVAGINYNGGYTSYADSVKGRFTISRDNSKNTLYLQMNSLRAEDTAVYYCARGANWHDTALDYWGQGTLVTVSS VL: DIQMTQSPSSLSASVGDRVTITCRASQSIISYVNWYQQKPGKAPKLVIYAATSRASGVPSRFSGSGSGTDFTLTISSLQPEDFATYYCQQSYESPLTFGGGTKVEIK",3.75,3.77,3.49
"376_G10 (antibody, V domains shown, VH/VL only) VH: EVQLLESGGGLVQPGGSLRLSCAASGFTFDSYGMNWVRQAPGKGLEWVAGINYNGGYTSYADSVKGRFTISRDNSKNTLYLQMNSLRAEDTAVYYCARGANWHDTALDYWGQGTLVTVSS VL: DIQMTQSPSSLSASVGDRVTITCRASQSILSYVNWYQQKPGKAPKLLIYAATSRASGVPSRFSGSGSGTDFTLTISSLQPEDFATYYCQQSYESPLTFGGGTKVEIK",3.54,3.52,3.54
"376_A07 (antibody, V domains shown, VH/VL only) VH: EVQLLESGGGLVQPGGSLRLSCAASGFTFSSYSMNWVRQAPGKGLEWVSGINYNGGYKSYADSVKGRFTISRDNSKNTLYLQMNSLRAEDTAVYYCARGATWHDTHLDYWGQGTLVTVSS VL: DIQMTQSPSSLSASVGDRVTITCRASQSILTYLNWYQQKPGKAPKLLIYAATSRASGVPSRFSGSGSGTDFTLTISSLQPEDFATYYCQQSYDSPLTFGGGTKVEIK",3.7,3.72,3.19
"375_F10 (antibody, V domains shown, VH/VL only) VH: EVQLLESGGGLVQPGGSLRLSCAASGFTFSSYSMNWVRQAPGKGLEWVSGINYNGGYTGYADSVKGRFTISRDNSKNTLYLQMNSLRAEDTAVYYCARGATWHDTHLDYWGQGTLVTVSS VL: DIQMTQSPSSLSASVGDRVTITCRASQSILTYLNWYQQKPGKAPKLVIYAATSRASGVPSRFSGSGSGTDFTLTISSLQPEDFATYYCQQSYDTPLTFGGGTKVEIK",3.69,3.77,3.29
